Results as given in patent publication US20250145694A1 (GUANGDONG FEIPENG BIOLOGICAL, published 2025).
Residue numbers refer to the chain shown, from its start.

B1: Anti-cTnI 8C4 recombinant antibody (WT) (antibody, mouse IgG1, kappa)
heavy: EVQMVESGGGLLKPGGSLKLSCAASGFTYSNYAMSWVRQTPEKRLEWVATISTGGSYSYYPDSVKGRFTISRDNAKNTLYLQMLSLRSEDTAMYYCARKDNYYGSTFMDYWGQGSSVTVSSAKTTPPSVYPLAPGSAAQTNSMVTLGCLVKGYFPEPVTVTWNSGSLSSGVHTFPAVLQSDLYTLSSSVTVPSSTWPSQTVTCNVAHPASSTKVDKKIVPRDCGCKPCICTVPEVSSVFIFPPKPKDVLTITLTPKVTCVVVDISKDDPEVQFSWFVDDVEVHTAQTKPREEQFNSTFRSVSELPIMHQDWLNGKEFKCRVNSAAFPAPIEKTISKTKGRPKAPQVYTIPPPKEQMAKDKVSLTCMITNFFPEDITVEWQWNGQPAENYKNTQPIMDTDGSYFVYSKLNVQKSNWEAGNTFTCSVLHEGLHNHHTEKSLSHSPG
light: DIQMTQTSSSLSASLGDRVTISCRASQDITQYLNWYQQKPDGTIKLLIYYSSRIHSGVSSRFSGSGSGTDYSLTISNLEQEDIATYFCQQGNTIPLTFDTGTKLELKRADAAPTVSIFPPSSEQLTSGGASVVCFLNNFYPKDINVKWKIDGSERQNGVLNSWTDQDSKDSTYSMSSTLTLTKDEYERHNSYTCEATHKTSTSPIVKSFNRNEC
notes: Mouse antibody expressed in CHO cells; also called CTNI 8C4 antibody
B2: Mutation 5 (antibody)
heavy: B1 heavy with K99R
light: B1 light
notes: light chain unchanged from WT; heavy chain assembled FR/CDR/constant
B3: Mutation 2 (antibody)
heavy: B1 heavy with K99R
light: B1 light with S51T
notes: assembled FR/CDR/constant
B4: Mutation 3 (antibody)
heavy: B1 heavy with T53S
light: B1 light with Q31N
notes: assembled FR/CDR/constant
B5: Mutation 4 (antibody)
heavy: B1 heavy with T53S
light: B1 light
notes: as for B2
B6: Mutation 1 (antibody)
heavy: B1 heavy with T53S, K99R
light: B1 light with Q31N, S51T
B7: Mutation 1-42 (antibody)
heavy: B1 heavy with T53S, Y59F, K99R, T106S
light: B1 light with D28E, Q31N, S51T, N92H
notes: assembled FR/CDR/constant
B8: Mutation 1-43 (antibody)
heavy: B1 heavy with Y29F, T53S, K99R, Y103P
light: B1 light with Q31N, S51T, I54L
notes: assembled FR/CDR/constant
B9: Mutation 1-44 (antibody)
heavy: B1 heavy with T53S, K99R, Y103P, T106S
light: B1 light with Q31N, S51T, I54L, N92H, I94L
notes: assembled FR/CDR/constant
B10: Mutation 1-46 (antibody)
heavy: B1 heavy with T53S, Y59F, K99R
light: B1 light with D28E, Q31N, S51T, I54L, N92H, I94L
notes: assembled FR/CDR/constant
B11: Mutation 1-45 (antibody)
heavy: B1 heavy with Y29F, T53S, Y59F, K99R, Y103F
light: B1 light with D28E, Q31N, S51T
notes: assembled FR/CDR/constant
B12: Mutation 1-41 (antibody)
heavy: B1 heavy with Y29F, T53S, Y59F, K99R, Y103F, T106S
light: B1 light with D28E, Q31N, S51T, I54L, I94L
notes: assembled FR/CDR/constant
B13: Mutation 1-48 (antibody)
heavy: B1 heavy with T53S, K99R, Y103P
light: B1 light with D28E, Q31N, S51T
notes: assembled FR/CDR/constant
B14: Mutation 1-47 (antibody)
heavy: B1 heavy with Y29F, T53S, K99R, Y103P, T106S
light: B1 light with Q31N, S51T, I94L
notes: assembled FR/CDR/constant
B15: WT 1-1 (antibody, V domains shown)
VH: QVQLQQSGTELAKPGASVKFSCKASDYTFSTYWMYWIKQRPGQGLEWIGYINPSTGHTEYNQKFKDKATLTADKSSSTAYMQLNSLTSEDSAVYYCARRYYGPFAMDYWGQGTSVTVSS
VL: EIFLTQSPAIMSASPGEKVTMTCSASSSVSYAHWYQQKSGTSPKRWIYDSSKIASGIPVRFSGSGSGTSYSLTISSMEAEDAATYYCQNWSTNPYTFGGGTKLEIKR
B16: WT 1-5 (antibody, V domains shown)
VH: B15 VH with T31S, I51L, R99K, Y101W
VL: B15 VL

What follows are binders tested against T1, CTNI quality control recombinant antigen (human, UniProt P19429 1-210, limits assumed) (assay: indirect ELISA, cTnI coated 1 ug/ml, antibody 1.372 ng/ml).
T1 construct: Recombinant antigen produced by the applicant; also called CTNI quality control recombinant protein (antigen produced by the company); cardiac troponin I
Procedure: (§1) CTNI quality control recombinant antigen was diluted to 1 μg/ml with a coating solution and coated a microplate, 100 μL per well, overnight at 4° C.; on the next day, the microplate was washed with a washing solution twice and patted dry; a blocking solution (20% of BSA+80% of PBS) was added, 120 μL per well, 37° C., 1 h, patted dry; the diluted cTnI monoclonal antibodies were added, 100 μL/well, 37° C., 30 min; the microplate was washed with a washing solution 5 times, patted dry; goat anti-mouse IgG-HRP, 100 μL per well, 37° C., 30 min; the microplate was washed with a washing solution 5 times, patted dry; a color-developing solution A (50 μL/well) was added, a color-developing solution B (50 μL/well) was added, 10 min; a stop solution was added, 50 μL/well; OD values were read on microplate reader at 450 nm (reference, 630 nm).

T1 sequence (P19429 whole entry): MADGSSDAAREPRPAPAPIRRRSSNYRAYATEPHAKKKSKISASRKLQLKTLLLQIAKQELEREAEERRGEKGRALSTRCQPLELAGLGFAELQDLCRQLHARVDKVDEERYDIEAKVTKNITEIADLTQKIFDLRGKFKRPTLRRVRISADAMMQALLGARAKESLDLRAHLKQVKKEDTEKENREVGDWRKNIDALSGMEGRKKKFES

Row | Binder | OD450 (reference 630 nm)
1 | B1 | 0.194 OD
2 | B2 | 0.214 OD
3 | B3 | 0.728 OD
4 | B4 | 0.479 OD
5 | B5 | 0.208 OD
6 | B6 | 0.785 OD

Each binder was assayed against T1, CTNI quality control recombinant antigen (assay: indirect ELISA, cTnI coated 1 ug/ml, antibody 0.051 ng/ml).
Procedure: as §1

Row | Binder | OD450 (reference 630 nm)
7 | B1 | 0.04 OD
8 | B2 | 0.054 OD
9 | B3 | 0.058 OD
10 | B4 | 0.049 OD
11 | B5 | 0.061 OD
12 | B6 | 0.088 OD

Each binder was assayed against T1, CTNI quality control recombinant antigen (assay: indirect ELISA, cTnI coated 1 ug/ml, antibody 0.457 ng/ml).
Procedure: as §1

Row | Binder | OD450 (reference 630 nm)
13 | B1 | 0.086 OD
14 | B2 | 0.098 OD
15 | B3 | 0.248 OD
16 | B4 | 0.172 OD
17 | B5 | 0.098 OD
18 | B6 | 0.307 OD

These binders were tested against T1, CTNI quality control recombinant antigen (assay: indirect ELISA, cTnI coated 1 ug/ml, antibody 12.346 ng/ml).
Procedure: as §1

Row | Binder | OD450 (reference 630 nm)
19 | B1 | 1.18 OD
20 | B2 | 1.32 OD
21 | B3 | 1.95 OD
22 | B4 | 1.78 OD
23 | B5 | 1.21 OD
24 | B6 | 2.02 OD

The binders below were run against T1, CTNI quality control recombinant antigen (assay: indirect ELISA, cTnI coated 1 ug/ml, antibody 0 ng/ml (blank)).
Procedure: as §1

Row | Binder | OD450 (reference 630 nm)
25 | B1 | 0.031 OD
26 | B2 | 0.03 OD
27 | B3 | 0 OD
28 | B4 | 0.011 OD
29 | B5 | 0.029 OD
30 | B6 | 0.039 OD

What follows are binders tested against T1, CTNI quality control recombinant antigen (assay: indirect ELISA, cTnI coated 1 ug/ml, antibody 4.115 ng/ml).
Procedure: as §1

Row | Binder | OD450 (reference 630 nm)
31 | B1 | 0.435 OD
32 | B2 | 0.569 OD
33 | B3 | 1.44 OD
34 | B4 | 1.04 OD
35 | B5 | 0.456 OD
36 | B6 | 1.6 OD

What follows are binders tested against T1, CTNI quality control recombinant antigen (assay: indirect ELISA, cTnI coated 1 ug/ml, antibody 0.152 ng/ml).
Procedure: as §1

Row | Binder | OD450 (reference 630 nm)
37 | B1 | 0.053 OD
38 | B2 | 0.072 OD
39 | B3 | 0.072 OD
40 | B4 | 0.068 OD
41 | B5 | 0.069 OD
42 | B6 | 0.129 OD

These binders were tested against T1, CTNI quality control recombinant antigen (assay: BLI, antibody on AMC sensor, cTnI in solution).
Procedure: With an AMC sensor, the purified antibody was diluted to 10 μg/ml with PBST, and CTNI quality control recombinant protein (antigen produced by the company) was gradient diluted with PBST to 769.2 nmol/ml, 384.6 nmol/ml, 192.3 nmol/ml, 96.2 nmol/ml, 48.1 nmol/ml, 24 nmol/ml, 12 nmol/ml, and 0 nmol/ml.

Row | Binder | Kd | koff | kon
43 | B1 | 21.6 nM | 0.000169 s⁻¹ | 7830 M⁻¹ s⁻¹
44 | B7 | 3.09 nM | 0.000109 s⁻¹ | 35200 M⁻¹ s⁻¹
45 | B8 | 5.37 nM | 0.000248 s⁻¹ | 46100 M⁻¹ s⁻¹
46 | B9 | 3.53 nM | 0.000171 s⁻¹ | 48500 M⁻¹ s⁻¹
47 | B10 | 4.93 nM | 0.000274 s⁻¹ | 55600 M⁻¹ s⁻¹
48 | B11 | 9.02 nM | 0.00019 s⁻¹ | 21100 M⁻¹ s⁻¹
49 | B12 | 9.24 nM | 0.000774 s⁻¹ | 83800 M⁻¹ s⁻¹
50 | B13 | 7.04 nM | 0.000583 s⁻¹ | 82800 M⁻¹ s⁻¹
51 | B6 | 7.04 nM | 0.000583 s⁻¹ | 82800 M⁻¹ s⁻¹
52 | B14 | 2.87 nM | 9.47e-05 s⁻¹ | 33000 M⁻¹ s⁻¹
53 | B15 | 33.3 nM | 0.000128 s⁻¹ | 3840 M⁻¹ s⁻¹
54 | B16 | 8.35 nM | 0.000743 s⁻¹ | 89000 M⁻¹ s⁻¹
